{
  "source": "patent US7291492",
  "key": {"[1]": {"target": "[3H]acetyl-labelled peptide corresponding to the N-Terminus of Histone H3, P68431"}, "[2]": {"target": "[3H]acetyl-labelled peptide corresponding to the N-Terminus of histone H4, P62805"}},
  "data": [
    {"protein": "N-Terminus flag tagged HDAC9 (protein) MHSMISSVDVKSEVPVGLEPISPLDLRTDLRMMMPVVDPVVREKQLQQELLLIQQQQQIQKQLLIAEFQKQHENLTRQHQAQLQEHIKLQQELLAIKQQQELLEKEQKLEQQRQEQEVERHRREQQLPPLRGKDRGRERAVASTEVKQKLQEFLLSKSATKDTPTNGKNHSVSRHPKLWYTAAHHTSLDQSSPPLSGTSPSYKYTLPGAQDAKDDFPLRKTASEPNLKVRSRLKQKVAERRSSPLLRRKDGNVVTSFKKRMFEVTESSVSSSSPGSGPSSPNNGPTGSVTENETSVLPPTPHAEQMVSQQRILIHEDSMNLLSLYTSPSLPNITLGLPAVPSQLNASNSLKEKQKCETQTLRQGVPLPGQYGGSIPASSSHPHVTLEGKPPNSSHQALLQHLLLKEQMRQQKLLVAGGVPLHPQSPLATKERISPGIRGTHKLPRHRPLNRTQSAPLPQSTLAQLVIQQQHQQFLEKQKQYQQQIHMNKLLSKSIEQLKQPGSHLEEAEEELQGDQAMQEDRAPSSGNSTRSDSSACVDDTLGQVGAVKVKEEPVDSDEDAQIQEMESGEQAAFMQQPFLEPTHTRALSVRQAPLAAVGMDGLEKHRLVSRTHSSPAASVLPHPAMDRPLQPGSATGIAYDPLMLKHQCVCGNSTTHPEHAGRIQSIWSRLQETGLLNKCERIQGRKASLEEIQLVHSEHHSLLYGTNPLDGQKLDPRILLGDDSQKFFSSLPCGGLGVDSDTIWNELRSSGAARMAVGCVIELASKVASGELKNGFAVVRPPGHHAEESTAMGFCFFNSVAITAKYLRDQLNISKILIVDLDVHHGNGTQQAFYADPSILYISLHRYDEGNFFPGSGAPNEVGTGLGEGYNINIAWTGGLDPPMGDVEYLEAFRTIVKPVAKEFDPDMVLVSAGFDALEGHTPPLGGYKVTAKCFGHLTKQLMTLADGRVVLALEGGHDLTAICDASEACVNALLGNELEPLAEDILHQSPNMNAVISLQKIIEIQSKYWKSVRMVAVPRGCALAGAQLQEETETVSALASLTVDVEQPFAQEDSRTAGEPMEEEPAL", "values": [
      {"measurement": "histone deacetylase activity (release of [3H]acetate from the peptide)", "setting": "[1]", "value": "Higher activities of HDAC9 have been detected towards peptide substrates derived from histone H3 than from histone H4"},
      {"measurement": "histone deacetylase activity (release of [3H]acetate from the peptide), relative to HDAC1", "setting": "[2]", "value": "HDAC9 contains about 25% activity of HDAC1"},
      {"measurement": "histone deacetylase activity (release of [3H]acetate from the peptide), relative to HDACs 4 and 5", "setting": "[2]", "value": "50% activity of HDACs 4 and 5"}
    ]}
  ]
}
